Experimental data from US12186374B2 (Sanofi-Aventis Deutschland GmbH, priority 2014, dated 2025).

Experiments:
[1] = tested on: patients with Type 2 diabetes mellitus (T2DM); assay: Events adjudicated as allergic reaction by ARAC (Example 2); type: in vivo, human
From the text: The mission of the ARAC will be to adjudicate, in a timely manner, all allergic, or possible allergic events.
In case a patient experiences an allergic reaction or an allergic-like reaction this has to be reported as an adverse event and recorded in the e-CRF on the specific AE form for suspected allergic event. Additional information is collected on specific allergic reaction complementary form. Allergic reaction or possible allergic reaction will be adjudicated by the ARAC (Section 5.4.2).
The number (%) of patients with events adjudicated as allergic reactions by ARAC and with events adjudicated by ARAC as possibly related to the IMP will be summarized by treatment group. All the allergic events reported by the investigators on the AE form for suspected allergic event and its associated complementary forms (confirmed or not confirmed by ARAC) will be listed.

[2] = tested on: patients with T2DM; assay: Increased calcitonin reported on AE form (Example 3); type: in vivo, human
From the text: During the course of the study, if calcitonin value is found […] (5.9 pmol/L): • A retest should be performed by the central laboratory within 7 days. In addition, blood should be collected and sent to the central laboratory for measurement of: calcium, phosphorus, gastrin, Thyroid Stimulating Hormone (TSH), and anti-thyroid peroxidase (anti-TPO) antibodies. • The clinical and laboratory documentations listed below are to be collected and recorded in source documents as soon as possible: • Potential false positive circumstances: smoking status, proton-pump inhibitor treatments (eg, omeprazole), autoimmune thyroid diseases (Hashimoto's thyroiditis or Grave's disease), differentiated thyroid cancer, hypercalcemia, hypergastrinemia, chronic renal insufficiency (not on dialysis), other neuro-endocrine tumors (lung small cell cancer, intestinal carcinoid), acute pulmonary inflammatory conditions, or sepsis; • Specific personal and/or familial medical history in relation to thyroid or other endocrine diseases; • Specific physical examination (neck, thyroid gland).
If the retest confirms that the calcitonin value is […]: • The event must be reported in the e-CRF on the specific AE form and specific complementary form for “increased calcitonin […]” with all appropriate clinical and laboratory documentation. • An ultrasound scan of the thyroid should be performed and the patient may be referred to a thyroid specialist if judged necessary. • The patient should continue to be followed according to protocol schedule (including planned calcitonin measurements). […] As far as possible, blood should be collected 1 to 2 weeks after IMP discontinuation and sent to the central laboratory for calcitonin measurement. • If at any time during follow-up a calcitonin value ≥20 pg/mL increases by 20% or more between 2 assessments (while remaining below 50 pg/mL), a repeated measurement should be performed earlier than scheduled in the protocol, ie, 1 month later. Once results are available, discussion with Sponsor should be initiated without delay for further guidance. 9.6.7 Monitoring of Renal Function in Case of Prolonged and Severe Nausea and Vomiting

[3] = tested on: patients with T2DM; assay: Patients requiring rescue therapy (Example 3); type: in vivo, human
From the text: Routine fasting SMPG and central lab alerts on FPG (and HbA1c after Week 12) were set up to ensure that glycemic parameters remained under predefined threshold values. If values were above predefined thresholds, and no explanations were found, or appropriate actions failed, or a dose >60 U was necessary to decrease FPG and/or HbA1c below the threshold values, rescue therapy was to be introduced along with IMP and metformin (if taken). Newly initiated anti-diabetic medications, or an increase from baseline in background metformin dose were considered as a rescue therapy.

[4] = tested on: patients with Type 2 diabetes mellitus (T2DM); assay: Patients with HbA1c ≤6.5% or <7% at Week 30 (Example 2); type: in vivo, human; settings: mITT population
From the text: Efficacy analysis was based on modified intent-to-treat (mITT) population using efficacy assessments collected during the study, including those obtained after IMP discontinuation or introduction of rescue therapy. The mITT population consisted of all randomized patients who had both a baseline assessment and at least one post-baseline assessment of any primary or secondary efficacy variables.
Similar MMRM method or ANCOVA was applied on continuous secondary efficacy endpoints and Cochran-Mantei-Haenszel method stratified by randomization strata was applied on categorical efficacy endpoints.

[5] = tested on: patients with T2DM; assay: Major cardiovascular events adjudicated by CAC (Example 3)
[6] = tested on: patients with T2DM; assay: Body weight change from baseline to Week 30 (Example 3); type: in vivo, human
From the text: Body weight should be obtained with the patient wearing undergarments or very light clothing and no shoes, and with an empty bladder. The same scale should be used throughout the study, and calibrated on a regular basis as recommended by the manufacturer.
Similar MMRM method or analysis of covariance (ANCOVA) was applied on continuous secondary efficacy endpoints and the Cochran-Mantei-Haenszel method stratified by randomization strata was applied for categorical efficacy endpoints.

[7] = on-treatment period, Safety population
[8] = PT, on-treatment period, Safety population

## Gly(A21)-Arg(B31)-Arg(B32)-human insulin [Insulin Glargine]
[1]; in vivo
  Allergic reaction by ARAC: All; Anaphylactic reaction: 0 Number (%)
  Allergic reaction by ARAC: All; Angioedema: 0 Number (%)
  Allergic reaction by ARAC: All; Other allergic reaction; Conjunctivitis allergic: 1 (0.2%) Number (%)
  Allergic reaction by ARAC: All; Other allergic reaction; Rhinitis allergic: 2 (0.4%) Number (%)
  Allergic reaction by ARAC: Not related to IMP; Angioedema: 0 Number (%)
  Allergic reaction by ARAC: Not related to IMP; Any category; Any event: 3 (0.6%) Number (%)
  Allergic reaction by ARAC: Not related to IMP; Other allergic reaction; Conjunctivitis allergic: 1 (0.2%) Number (%)
  Allergic reaction by ARAC: Not related to IMP; Other allergic reaction; Rhinitis allergic: 2 (0.4%) Number (%)
  Allergic reaction by ARAC: Possibly related to IMP; Anaphylactic reaction: 0 Number (%)
  Allergic reaction by ARAC: Possibly related to IMP; Any category; Any event: 0 Number (%)
  Allergic reactions possibly related to IMP (ARAC), number of patients: none
  Patients with events adjudicated as allergic reaction by ARAC: All; Any category; Any event: 3 (0.6%) Number (%)
[1]; [7]
  Allergic reaction by ARAC: All; Urticaria (hives); Urticaria: 1 (0.2%) Number (%)
  Allergic reaction by ARAC: Not related to IMP; Urticaria (hives); Urticaria: 1 (0.2%) Number (%)
  Allergic reaction by ARAC: Possibly related to IMP; Urticaria (hives); Urticaria: 0 Number (%)
[2]; Example 3
  Patients with TEAE of increased calcitonin (≥20 pg/mL): Two
[2]; [8]
  % of patients with events reported on the AE form for increased calcitonin (≥20 ng/L): Blood calcitonin increased: 0.5%
  Number of patients with events reported on the AE form for increased calcitonin (≥20 ng/L): Blood calcitonin increased: 2
[2]; [7]
  % of patients with events reported on the AE form for increased calcitonin (≥20 ng/L): Any: 0.5%
  Number of patients with events reported on the AE form for increased calcitonin (≥20 ng/L): Any: 2
[3]
  Patients who received rescue therapy, %: 6.0%
  Patients who received rescue therapy, number: 22 patients
[4]
  % of patients with HbA1c ≤[…] at Week 30: (39.5%)
  Number of patients with HbA1c ≤[…] at Week 30: 184 patients
[4]; listed as insulin glargine
  % of patients with HbA1c ≤[…] at Week 30: 39.5%
[5]; Example 3
  Events adjudicated as major cardiovascular events by CAC, % of patients: 1.1%
  Events adjudicated as major cardiovascular events by CAC, number of patients: 4 patients
[5]; [7]
  % of patients with events adjudicated as major cardiovascular events by CAC: Any: 1.1%
  % of patients with events adjudicated as major cardiovascular events by CAC: Cardiovascular death: 0.3%
  % of patients with events adjudicated as major cardiovascular events by CAC: Coronary revascularization procedure: 0.8%
  % of patients with events adjudicated as major cardiovascular events by CAC: Hospitalization for heart failure: 0.3%
  Number of patients with events adjudicated as major cardiovascular events by CAC: Any: 4
  Number of patients with events adjudicated as major cardiovascular events by CAC: Cardiovascular death: 1
  Number of patients with events adjudicated as major cardiovascular events by CAC: Coronary revascularization procedure: 3
  Number of patients with events adjudicated as major cardiovascular events by CAC: Hospitalization for heart failure: 1
  Number of patients with events adjudicated as major cardiovascular events by CAC: Hospitalization for unstable angina: 0
  Number of patients with events adjudicated as major cardiovascular events by CAC: Non-fatal myocardial infarction: 0
  Number of patients with events adjudicated as major cardiovascular events by CAC: Non-fatal stroke: 0
[6]; Example 3
  Body weight, LS mean change from baseline to Week 30: +0.70 kg
[6]; MMRM, mITT population
  Body weight change from baseline to Week 30, LS Mean (SB): 0.70 (0.178) kg
[6]; mITT population
  Body weight at Week 30, Mean (SD): 87.96 (15.08) kg
  Body weight at Week 30, Median: 85.90 kg
